40 sequences from the nanobody polyreactivity screen of Harvey et al. (2022) can be followed below.

A short description of this series: yeast display, Sf9 membrane polyspecificity reagent, FACS + sequencing; frameworks hold sequencing errors. The method in brief: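 Sorting gates, low and high (top ~1%), were placed on anti-HA fluorescence to track expression and on streptavidin fluorescence to track reagent binding. A clone's polyreactivity label is taken from the gate it came out of. The reagent was 10% biotinylated, detergent-solubilized Sf9 membrane, applied for 1 hour at 4 °C to galactose-induced yeast display cells.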
For the sequence “QVQLVESGGGLVPAGGSLRLSWAASGFIFGYNVMGWYRQAPGKVRELVAAISRGGSTNYADSVKGRFTISRDNAKKTVSGQMTSLKPEATAVYDCAARRYRPAAFDSWGQGTQVTVSS”, the “polyreactivity (PSR sort gate)” value is reported as “high polyreactivity”.
“QVQLVESGGGLVPAGGSLRLTCAASGSTFGDYAMGWYRQAPGKERELVAAINFSDGSTYYADSVKGRFTISRDNAKNTVYLQMNSLKPEDTAVYYCAAYTYYDGVYGFDYWGQGTQVTVSS”: the “polyreactivity (PSR sort gate)” value is given as “low polyreactivity”.
On to “QVQLVESGGGLVQAAGSLRLICAASGSIFTRYTMGWYRQAPGKERELVAVISDSSGRTYYADSVKGRFTISRDNAKNTVYLQMNSLKPEDTAVYYCAAEYSDIYEYWGQGTQVTVSS”, for which the “polyreactivity (PSR sort gate)” value was “low polyreactivity”.
As to “QVQLVESGGGLVQAAGSLRLSCAASGGTFGWYAKGWYRLAHGKEREFLPAIRYSDGNTYYADSVKRRFTISRDNAKNSVYLQMNSLKPEDSAVYYCAADYVYAYIDGEVAEFYYWGPGTQVTVSS”, the “polyreactivity (PSR sort gate)” value was “high polyreactivity”.
The same measure for “QVQLVESGGGLVQAAGSLRLSCAASGITFSRNGMGWYRQAPGKERELFAAISTSGDSTDYADSVKGRFTISRDNAKNTVYLQMNSLKPEDTAVYYCNRDFSLVVHYKFDYWGQGTQVTVSS”: “low polyreactivity”; for “QVQLVESGGGLVQAAGSLRLSCAASGSIFGAYAMGWYRQAPGKERELVAAINYGGATTYYADSVKGRFTISRDNAKNTVYLQMNSLKPEDTAVYYCAADYLYAYGDVAVVYGWYAYYYWGQGTQVTVSS”: “low polyreactivity”.
Take “QVQLVESGGGLVQAAGSLRLSCAASGYIFQYYAMGWYRQAPGKERELVAAITGGGSTKYADSVKGRFTISRDNAKNTVYLQMNSLKPEDTAVYYCAASLWYRISKYDYWGQGTQVTVSS”: the “polyreactivity (PSR sort gate)” value is “high polyreactivity”.
In the case of “QVQLVESGGGLVQAAGSLRLSCAASVGTFTPNVMGWSRKAPGKERELVAAIDDSGSRTYYADSVKGRFTISRVNAKNTVYLQMNSLKPEDTAVYYCAVYWYGTFPMYYWGQGTQVTVSS”, the “polyreactivity (PSR sort gate)” value is on record as “low polyreactivity”.
The same measure for “QVQLVESGGGLVQAAGSLRLSCAASVITFVKNAMGWYRQAPGKERELVARIRIGGSTSYADSVKGRFTISRDYAKNTFYLQLNSLKPEDTAVYYCARYAGRLSYRYEYWGQGTQVTVSS”: “high polyreactivity”.
For the sequence “QVQLVESGGGLVQAAGSLRLSSAPSVSSFRNKAMGWYRQAPGKERELVASISSSGDSTYADSVKGRFTISRDNAKNTVSLQMNSLKPEDTAVYYCARDYLSPYAVDYWGQGTQVTVSS”, the “polyreactivity (PSR sort gate)” value is given as “low polyreactivity”.
The same measure for “QVQLVESGGGLVQAARSHRVSCAASGSIFWGNVKGWYRQAPGNESELVAAINSGGSTYYADSVKGRFTISRDNAKNTVYLQMNSLIPEDTAVYYCAAAINRYRGTFNYWGQGTQVSVSS”: “high polyreactivity”; for “QVQLVESGGGLVQAEGSLRLSCAASGFIFRYNAMGWYRQAPGKERELVAAITSGGSTNYADSVKGRFTISRDNAKNTVYLQMNSLKPEDTAVYYCNKYRPYGRIYHLAYGRDYWGQGTQVTVSS”: “high polyreactivity”.
As for “QVQLVESGGGLVQAGAILRVSCAASGISLQYAMGCYRQAPGKERELVASISSRGTSTYYADSVKGRFTISRDNAKNTVYLQMNSLKPEDTAVYYCAARVRWWSPGGYWGQGTQVTVSS”, the “polyreactivity (PSR sort gate)” value is reported as “high polyreactivity”.
With “QVQLVESGGGLVQAGASLRLRCAASGRTFYYKTMGWYRQAPGKERELVAAITRNGGSTYYADSVKGRFTISRDKAKNTVYLQMKSLKLEDTAVYSCGAEGPSHRLNVRQVKGSDSWGQGTQVSVSS”, the “polyreactivity (PSR sort gate)” value was “low polyreactivity”.
The same measure for “QVQLVESGGGLVQAGASLRLSCAASGFTFDSYAMGWYRQAPGKDRELVAVISATGAITYYADSVKGRFTISRDNAKNTVYLPMNSLKPEDTAVYYCAVQVSWSYYRYGYWGQGTQVTVSS”: “low polyreactivity”.
Take “QVQLVESGGGLVQAGASLRLSCAASGIIFNVKAMGWYRQAPGKERELVAAITSGANTYYADSVKGRFTISRDNAKNTVYLQMNSLKPEDSAVYYCNKVGSNSVGPGYDYWGHGTQVTVSS”: the “polyreactivity (PSR sort gate)” value is on record as “high polyreactivity”.
Turning to “QVQLVESGGGLVQAGASLRLSCAASGIILSVYAMGWYRQAPGKERELVAAITTVGNTYYADSVKGRFTISRDNAKNTVYLEMNCLKPEDTAVYYCAAKRWTTYKYNYWGQGTQVTVSS”, the “polyreactivity (PSR sort gate)” value was “high polyreactivity”.
To “QVQLVESGGGLVQAGASLRLSCAASGITLDLYDMGWYRQAPGKERELVAAISRSGVRTYYADSVKWRFTISRDNAKNTVYFQMNSLKPEDTSVYYCNKGYARRYASGYDYWGQGTQVSVSS” belongs “high polyreactivity”; to “QVQLVESGGGLVQAGASLRLSCAASGRIFSRNTMGWSRQAPGKECEFVAAISQSGGRTYYADSVKGRFTISRDNAKNTVYLQMNSLKPEDTAVYYCNAQFARSSGFNYWGQGTQVTVSS”, “high polyreactivity”.
On to “QVQLVESGGGLVQAGASLRLSCAASGRIFVVNAMGWYRQAPGKERELVATITRSGGITYYADSVKGRFTISRDNAKNTVYLQMNSLKPEDTAVYYCNADVLFYTYYTRGRFDFDYWGQGSQVTVSS”, for which the “polyreactivity (PSR sort gate)” value is recorded as “low polyreactivity”.
To “QVQLVESGGGLVQAGASLRLSCAASGRTFEANTMGWYRQAPGKERELVAAITRNGGSTYYADSVKGRFTISRDNAKNTVYLQMNSLKPEDPAVYYCAARSAYRSRHKYDYWGQGTQVTVSS” belongs “high polyreactivity”; to “QVQLVESGGGLVQAGASLRLSCAASGRTFWFYAMGWYRQAPGQERELVAAISSGGSTNYADSVKGLFTISRDNAKNTVYLQMNSLKPEDTAVYYCAKVGNIPYGTRYYYNRYDYWGQGTQVTVSS”, “low polyreactivity”.
With “QVQLVESGGGLVQAGASLRLSCAASGRTIYANAMGWYIQAPGKERELVAAISRRGGNTYYADSVKGRFTISRDNAKNTVYLQMNRLKPEDTAVYYCYAYGGGDYWGQGTQVTVSS”, the “polyreactivity (PSR sort gate)” value is “high polyreactivity”.
Regarding “QVQLVESGGGLVQAGASLRLSCAASGSIFFPYAMGWYRQAPGKERELVASITRAGSTNYADSVKGRFTISRDNAKNTVYLQMTSQKPVDTAVYYCAARNYRQFEYGYWGQGTLVTVSS”, the “polyreactivity (PSR sort gate)” value is listed as “low polyreactivity”.
In the case of “QVQLVESGGGLVQAGASLRLSCAASGSTFLRNAMGWYRQAPGKKGSWVATISYDGDSTYYADSVKGRFTISRDNTKNTVYLQMNSLKPEDPAVYYCAASYSLTFWDKDDYWGQGTQVSVSS”, the “polyreactivity (PSR sort gate)” value was “low polyreactivity”.
For the sequence “QVQLVESGGGLVQAGASLRLSCAASGSTFYGNTMGWYRQAPGKERELVAAITSTGRTYYADSVKGRFTLSRDNAKNTVYLQMNSLKPEDTAVYYCAASQRRRFQRPSFDYWGQGPQVTVSS”, the “polyreactivity (PSR sort gate)” value is on record as “high polyreactivity”.
“QVQLVESGGGLVQAGASLRLSCAASGSTFYVNAMGWYRQAPGKERELVASISSSSGSTYYADSVKRRFTISRDNAKNTVYFQMNSLKPEDTAVYYCAAEVGIFIWFDYWGQGTQVTVSS”: the “polyreactivity (PSR sort gate)” value was “low polyreactivity”.
On to “QVQLVESGGGLVQAGASLRLSCAASGSTLWYYAMGWYRQAPGKERELVADITSSGNTNYADSVKGRFTISRDNAKNTVYLQMNSLKPEDTAVYYCAADSANYQWYLSWQKDDYWGQGTKVTVSS”, for which the “polyreactivity (PSR sort gate)” value is “low polyreactivity”.
Turning to “QVQLVESGGGLVQAGASLRLSCADSGIIFQVYAMGWYRQAPGKERELVAAISDDGSTNYADSVKGRFTISRDNAKNTVYLQMNSLKPEDTAVYYCAKESWGRLYYRYDYWGQGTQVTVSS”, the “polyreactivity (PSR sort gate)” value is “low polyreactivity”.
Take “QVQLVESGGGLVQAGASLRLSCSASGRTFLNYTMGWSRHAPGTERELVAAIRYRDGSTYYADSVKGRFTISRDNAKNTVYLQMNSLKPVDTAVYYCNTRITQVGDYIYDYWGQGTQVTVSS”: the “polyreactivity (PSR sort gate)” value is “low polyreactivity”.
Regarding “QVQLVESGGGLVQAGCILRLSCAASGFTFSWYAMGWYRQARGKERELVAAISYSGDSTYYADSVKGRFTISRDNAKNTVYLQMNSLKPEDTAVYYCARRSYYATYYPQPFGYNYLGQGTQVTVSS”, the “polyreactivity (PSR sort gate)” value is given as “high polyreactivity”.
In the case of “QVQLVESGGGLVQAGCSGSLSCAASGRIFQRNSMGWYRQAPGKEREFVAAITKSGGGTYADSVKGRFTISRDNAKNTVYLQMNSLKPEDTAVYYCNVVPVWRPYSLINWQKHFGYWGQGTQVTVSS”, the “polyreactivity (PSR sort gate)” value is given as “high polyreactivity”.
To “QVQLVESGGGLVQAGCSLRISCAASGFTFAHNEMGWSRQAPGKERELVAAISSRGGRTFYADSVKGRFTISRDNAKKTVYLQMNSLKPEDTAVDYCNRVRSVQYDYWGQGSQVTVSS” belongs “high polyreactivity”; to “QVQLVESGGGLVQAGCSLRLICAASGRIFSTYAMGWYRQAPGKERELVAAITSRGGSTYYADSVKGRFTISRDNAKNTVYLQMNSLKPEDTAVYYCATESPYKWGGYRFYYWGQGTQVTVSS”, “high polyreactivity”; to “QVQLVESGGGLVQAGCSLRLSCAASGFIFVGKDMGWYRQAPGKERELVAAISSGGTTNYADSVKGRFTISRDNAKNTVYLQMNSLKPEDTAVYYCAADFDYRQGYDSFHLDYWGQGTQVTVSS”, “low polyreactivity”.
The same measure for “QVQLVESGGGLVQAGCSLRLSCAASGFIFYDYDMGWYRQAPGKERELVAAITYSGGSTYYADSVKGRFTISRDNAKNTVYFQMNSLKPEDTAVYYCAAVKSRYAEAVDYYYWGQGTQVTVSS”: “low polyreactivity”; for “QVQLVESGGGLVQAGCSLRLSCAASGFTFFKYAMGWYRQAPGTERELVAAITRNGGRTYYADSVKGRFTISRDNAKNTVYLQMNSLKPEDTAVYYCAARYANLRNGYRYDYWGQGTQVTVSS”: “high polyreactivity”.
On to “QVQLVESGGGLVQAGCSLRLSCAASGGTFGRYAMGWYRQAPGTERELVASITTGGRTNYADSVKGRFTISRDNAKNTVYLQMNSLKPEDTAVYYCAKKRYGYPVPFYYWGQGTQVTVSS”, for which the “polyreactivity (PSR sort gate)” value is given as “high polyreactivity”.
With “QVQLVESGGGLVQAGCSLRLSCAASGGTFYVNAMGCYRQAPGKDRELVAGIRESGASTYYADSVKGRFTISLDNAKNTVYLQMNSLKPEDTAVYYCAVDGPYPAASQSEVGYDYWGQGTQVTVSS”, the “polyreactivity (PSR sort gate)” value is listed as “low polyreactivity”.
As for “QVQLVESGGGLVQAGCSLRLSCAASGRIFSRYTMGWSRQAPGKERELVAAISSGGSTYYADSVKGRFTISLDNAKNTVYFQMNSLKPEDTAVYYCNTRYVGQRSTWVDQVRRYDYCGQGTQVTVSS”, the “polyreactivity (PSR sort gate)” value was “high polyreactivity”.
